Measurements as given in the supplement of paper PMC12764529.
± gives the half width of the 95% confidence interval.

Assay: folding stability dG unfold (combined trypsin and chymotrypsin); higher = more stable
Outline: (§1)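 Designed mini-proteins (under 80 residues, no cysteine) in a PA-tagged cDNA display construct were digested with trypsin and chymotrypsin. Each protease was used at 11 concentrations (threefold dilutions) plus a no-protease condition, followed by sequencing. K50 was inferred by Bayesian fitting of sequencing counts, and unfolding free energy was derived against a sequence-predicted unfolded-state K50 and a shared folded-state K50, per protease or combined. Only designs with AlphaFold2 dimer inter-PAE above 15 were kept.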

Row | Sequence | folding stability dG unfold
1 | SAGSNKKITAEELAKLLEEKFKEKFPDAEIKVHAHAEPRPDDKLIIHVHFEIYRKKPKIGEFDVVIEFESAG [r5_696_TrMRF] | 2.38 ± 0.13 kcal/mol
2 | SAGGSAGGSAGSSVKTYTGKGKKITITKLDNGTYIVTTPDKTSTYPPSVSEEEVIKKALESAGGSAGGSAGG [r17_272_JUSTAS] | 0.282 ± 0.17 kcal/mol
3 | SAMKKIKLSPEALELAKKLPPDYKVTEIKVEKLEDGTVVVTLTVEKTNENGEKEKVELTIVLDKDGKPVSAG [r14_420_TrROS_Hall] | 0.757 ± 0.37 kcal/mol
4 | SMKIKIPVLIKVDPSETIEEVLEKVKEIAEEIAKFLESKGGPVEVKADVEPIPEIDYVIVTVEAYVPEEASA [r9_1161_TrMRF] | 1.54 ± 0.17 kcal/mol
5 | SAGGMYILELTFTTPTSTTPRTVEVPPGNYEEAAKALREELAAEAGAADLEVTFTVYKVAPDGTLVEESAGG [r13_877_JUSTAS] | 2 ± 0.19 kcal/mol
6 | SAGGSDYYIRVRIRIYKPTPEDMQEGKPIPEVEIWFPFDSVEEIKEFLENLPPNIKVDVDWFPPEDSAGGSA [r2_25_TrROS] | 3.89 ± 0.14 kcal/mol
7 | SAGIFRFPDGQEITIPYYARTPNGKITPSEIKEQIKEFLAEQPGVKITEIEVEHEDNYVRVTITVRLPKSAG [r5_688_TrROS] | 1.01 ± 0.21 kcal/mol
8 | SAGGSAGGSAGPRYRLRIELRLERNEDGSLSLSAKIEIERIEPPPPPPRVVLYNGKLYLLSAGGSAGGSAGG [r17_418_TrROS_Hall] | 4.28 ± 0.34 kcal/mol
9 | SAGGSAGGSAGGMIKIKLGDKWVDVAEVKEYPDSIIVYNPKTNTKITISKKNPEDPNILISAGGSAGGSAGG [r7_391_JUSTAS] | 1.01 ± 0.21 kcal/mol
10 | SAGGSASSMTTTKKLSTGEKSVVELSTSPSTVTLVTTDPETGTVTVTTYTPSGTGPVATTTTVPAPSAGGSA [r15_137_JUSTAS] | 0.177 ± 0.097 kcal/mol
11 | SAGGSARVVILPDGYLLVEVDGKPFLFGPNDEVEIEEEGDELILRLRLRDKDGKEVGEFPFRFRLESAGGSA [r15_424_TrMRF] | 2.9 ± 0.055 kcal/mol
12 | SIEFKEGQWFPIREIDNNHIEWKHNNEPYKIPPDEIDEPGDWIRITNGRIPEIRPPPPPPVDPEDAKKKKSA [r9_842_TrROS] | 3.51 ± 0.33 kcal/mol
13 | SAGGSAGGSAGTVEEIAKYFAGEFPNYKVNIDVEWEGGKITSVDIEWEVVPPPPPESPGKSAGGSAGGSAGG [r11_197_TrROS] | 0.834 ± 0.22 kcal/mol
14 | SADPGDTVELEFWLPPGMNPEFVEQMEDEIRNILRDLGLEVDVKVEPDPDNGYVPVTITITKEQLKDLFSAG [r14_602_TrROS] | 1.82 ± 0.18 kcal/mol
15 | SAGGSMPTLKPDEILTLSSTTEPLPSGGLRGRTVTLKKIPGTGKFVTITKYSYQPPDGPITSATEILLSAGG [r13_263_JUSTAS] | 0.238 ± 0.15 kcal/mol
16 | SAKKTITLTITNEDGSTFTITITDNKITITNKDNGLVAEAEILPDGTIKLKIYNKNGELIAEITLKIKDSAG [r14_213_TrROS_Hall] | 4.09 ± 0.26 kcal/mol
17 | SGVEYIEIPLEVTLDAPLEKAFEFLEDLAEEFGLGDIEVLEVEVDPETGKVRVKALARIAIAPPPPPSLESA [r9_918_TrMRF] | 3.19 ± 0.17 kcal/mol
18 | SAGGSAGGSAKPNWVIIEMTIQIPEGDPEEIKEIMEPFGWEITGVDNNYIKVSILMPPGAKISAGGSAGGSA [r18_168_TrROS] | 1.26 ± 0.25 kcal/mol
19 | SAGGSAGGSAGSKKKRVITIWIPPNQSIEEAKNFMDEGFPIKEIDVQTRPDGHMMVTITLSAGGSAGGSAGG [r11_97_TrROS] | 1.21 ± 0.14 kcal/mol
20 | SAGGSAGGSANMPPEELADWIADKFQQRHGHPVKEIEVEHDPENNNYTITVEFDDKERTITLSAGGSAGGSA [r18_145_TrROS] | 0.591 ± 0.22 kcal/mol
21 | SAGGSAGGSMTFRVEVFNKKTGKVETIEVEGSLDELKALAPPGALVKIEVDGKTITIPAEELKSAGGSAGGS [r20_36_TrROS_Hall] | 1.74 ± 0.057 kcal/mol

Assay: folding stability dG unfold from trypsin proteolysis; higher = more stable
Outline: as §1

Row | Sequence | folding stability dG unfold
22 | SAGMKIEVKRLPGPGDYLFTLVDPELAARLKAVYPGLEEVIFPVGGPDSVPEEEIKERAEKELKELLLSAGG [r19_298_JUSTAS] | -0.0847 ± 0.17 kcal/mol
23 | SAGGSAGGEIKAKVPYEKYPKYYKVKVEIYDPNTKKKIEYEALFPKGTKISAEEIAKKIVKKIKSAGGSAGG [r6_233_TrMRF] | 0.876 ± 0.086 kcal/mol
24 | SAGGSELKPGDLVEVKVTVEFDEETGKATVEVEFNGKKLTVEVELEENQPPTVEVTLLVRIDKIEPSAGGSA [r2_113_TrROS_Hall] | 2.36 ± 0.17 kcal/mol
25 | SAGGKEYTAKVVEIKKVGNKIFIKIKLSDGRELTIEIKTPEEAKKLKVGDTVKITVNEDGSLTIEVLSAGGS [r16_2_TrROS_Hall] | 4.22 ± 0.15 kcal/mol
26 | SAGGSGMIKTETTVTITFPGGETVSFPATVTYDPETGKTEVEVNLPEAALAELKERAPDAEVNVLLSAGGSA [r2_409_JUSTAS] | 1.76 ± 0.032 kcal/mol
27 | SAMETYEYPVTGDSATFTVPVPPDHIAKVTVHYPSGSTDTVVPPGVTTTFTVPSSNATVTITIYPRSALSAG [r14_882_JUSTAS] | 1.01 ± 0.025 kcal/mol
28 | SFHVERDPEDNTIYIHFPPGMDPLELAKSLLKELREQQDDGPIKIHVHYGDWVFEIDIKKGKIEVRPPGESA [r9_224_TrROS] | 1.41 ± 0.1 kcal/mol
29 | SAGGSAGGSAGGLDLSVPGLTSVTPVLLEDPRGYVTTVYTTTYPDGTVLTHTTVLPASLLSAGGSAGGSAGG [r7_214_JUSTAS] | 1.09 ± 0.025 kcal/mol
30 | SAMPVFTFPVEIPGPEYTPEEIVAILKEAAAKLNLPVDEEVIRELAEKALAEGTTVADIIEEILKRGLGSAG [r14_364_JUSTAS] | 3.07 ± 0.094 kcal/mol
31 | SAGGMVLEVEFTGPLSEVEAFIEELKAKPGVELLSVEIEVKPLPGPPVRYRVKLEVKIYDPENPVLLSAGGS [r8_374_JUSTAS] | 2.26 ± 0.22 kcal/mol
32 | SAGGSLPPSTVIESEIVIEIEIENNISGIPGKTEKAFIIIKVTVTTDENGNLSSSVEIEIIPAKDLSAGGSA [r2_448_TrMRF] | 3.22 ± 0.23 kcal/mol
33 | SAGGSIPADTVATLTLPDRDLAVRVELVDGTPRYLVTGPDGTPVGTLTPEEFAAFVAALPADARLDLRSAGG [r13_657_JUSTAS] | 0.7 ± 0.032 kcal/mol
34 | SAGGELVLLSESESVFTSPDGSRTVVRTLLTERPGDLLVEITTTTTIEPESGAVTTTTTTRVLPRRESAGGS [r8_264_JUSTAS] | 2.33 ± 0.043 kcal/mol
35 | SAMKWSEVVVSYPSDRWYAEIYTPGPGGELTSVSYREFDSLEELEQWIEEKAPPGEVEVKREPAPPELLSAG [r14_964_JUSTAS] | 1.17 ± 0.033 kcal/mol
36 | SAGGSAGGSAGSSMTSTVTEVSTLSNGGTVVTTTTTSYYPSTGTTTTSTTTTTFTDGKAVSAGGSAGGSAGG [r11_337_JUSTAS] | 1.08 ± 0.057 kcal/mol
37 | SAGGMTITIEKEGDTLKVTITIRDAATNETYTVEATLTRKEDGSLTLEIRFEDGSTKTINLKDIKLVSAGGS [r16_154_TrROS_Hall] | 3 ± 0.21 kcal/mol
38 | SAGGSAGGSAKVYVNPDNNKVAVVLPPPGDSYLVLLFDPETGEVRLIEAPPEEVEELLKKGSAGGSAGGSAG [r3_162_TrMRF] | 0.618 ± 0.077 kcal/mol
39 | SAGQWVKFTLPIYKMKYEKDKDGKPEIKEMKPIPKFDIEARVDEDGNVRIRFGGNEREFPPGESLEDLISAG [r14_909_TrROS] | 0.0407 ± 0.21 kcal/mol
40 | SAGGSAPPEWRTIMIPMKPDDVDNAIEELRNELPPGRNINIHLQDPEPGRYFMITIRGNKIEIHFMSAGGSA [r15_257_TrROS] | 2.1 ± 0.17 kcal/mol
41 | SAGGSAGGSEDKYIIRVEVLLPNKKRTYVLEEPEKGIEAFKKRLEKEYPDEPIVEVRIEVLPASAGGSAGGS [r12_429_TrMRF] | 0.874 ± 0.032 kcal/mol
42 | SAGGSAGGGMSLEAPIGEIEKPEGTDTVVITVYENGKWHTIPLPNFKNIKIEKDPNSDVVTILLSAGGSAGG [r6_806_JUSTAS] | 1.29 ± 0.1 kcal/mol

Row | Sequence | folding stability dG unfold
43 | SAGSNKKITAEELAKLLEEKFKEKFPDAEIKVHAHAEPRPDDKLIIHVHFEIYRKKPKIGEFDVVIEFESAG [r5_696_TrMRF] | 1.55 ± 0.085 kcal/mol
44 | SAGGSAGGSAGSSVKTYTGKGKKITITKLDNGTYIVTTPDKTSTYPPSVSEEEVIKKALESAGGSAGGSAGG [r17_272_JUSTAS] | 0.506 ± 0.093 kcal/mol
45 | SAMKKIKLSPEALELAKKLPPDYKVTEIKVEKLEDGTVVVTLTVEKTNENGEKEKVELTIVLDKDGKPVSAG [r14_420_TrROS_Hall] | 0.619 ± 0.065 kcal/mol
46 | SMKIKIPVLIKVDPSETIEEVLEKVKEIAEEIAKFLESKGGPVEVKADVEPIPEIDYVIVTVEAYVPEEASA [r9_1161_TrMRF] | 1.53 ± 0.075 kcal/mol
47 | SAGGMYILELTFTTPTSTTPRTVEVPPGNYEEAAKALREELAAEAGAADLEVTFTVYKVAPDGTLVEESAGG [r13_877_JUSTAS] | 1.16 ± 0.049 kcal/mol
48 | SAGGSDYYIRVRIRIYKPTPEDMQEGKPIPEVEIWFPFDSVEEIKEFLENLPPNIKVDVDWFPPEDSAGGSA [r2_25_TrROS] | 3.35 ± 0.073 kcal/mol
49 | SAGIFRFPDGQEITIPYYARTPNGKITPSEIKEQIKEFLAEQPGVKITEIEVEHEDNYVRVTITVRLPKSAG [r5_688_TrROS] | 1.46 ± 0.14 kcal/mol
50 | SAGGSAGGSAGPRYRLRIELRLERNEDGSLSLSAKIEIERIEPPPPPPRVVLYNGKLYLLSAGGSAGGSAGG [r17_418_TrROS_Hall] | 3.91 ± 0.41 kcal/mol
51 | SAGGSAGGSAGGMIKIKLGDKWVDVAEVKEYPDSIIVYNPKTNTKITISKKNPEDPNILISAGGSAGGSAGG [r7_391_JUSTAS] | 0.463 ± 0.09 kcal/mol
52 | SAGGSASSMTTTKKLSTGEKSVVELSTSPSTVTLVTTDPETGTVTVTTYTPSGTGPVATTTTVPAPSAGGSA [r15_137_JUSTAS] | -0.431 ± 0.13 kcal/mol
53 | SAGGSARVVILPDGYLLVEVDGKPFLFGPNDEVEIEEEGDELILRLRLRDKDGKEVGEFPFRFRLESAGGSA [r15_424_TrMRF] | 2.71 ± 0.039 kcal/mol
54 | SIEFKEGQWFPIREIDNNHIEWKHNNEPYKIPPDEIDEPGDWIRITNGRIPEIRPPPPPPVDPEDAKKKKSA [r9_842_TrROS] | 2.6 ± 0.32 kcal/mol
55 | SAGGSAGGSAGTVEEIAKYFAGEFPNYKVNIDVEWEGGKITSVDIEWEVVPPPPPESPGKSAGGSAGGSAGG [r11_197_TrROS] | 1.16 ± 0.12 kcal/mol
56 | SADPGDTVELEFWLPPGMNPEFVEQMEDEIRNILRDLGLEVDVKVEPDPDNGYVPVTITITKEQLKDLFSAG [r14_602_TrROS] | 1.93 ± 0.12 kcal/mol
57 | SAGGSMPTLKPDEILTLSSTTEPLPSGGLRGRTVTLKKIPGTGKFVTITKYSYQPPDGPITSATEILLSAGG [r13_263_JUSTAS] | -0.538 ± 0.48 kcal/mol
58 | SAKKTITLTITNEDGSTFTITITDNKITITNKDNGLVAEAEILPDGTIKLKIYNKNGELIAEITLKIKDSAG [r14_213_TrROS_Hall] | 3.18 ± 0.32 kcal/mol
59 | SGVEYIEIPLEVTLDAPLEKAFEFLEDLAEEFGLGDIEVLEVEVDPETGKVRVKALARIAIAPPPPPSLESA [r9_918_TrMRF] | 2.83 ± 0.044 kcal/mol
60 | SAGGSAGGSAKPNWVIIEMTIQIPEGDPEEIKEIMEPFGWEITGVDNNYIKVSILMPPGAKISAGGSAGGSA [r18_168_TrROS] | 1.26 ± 0.14 kcal/mol
61 | SAGGSAGGSAGSKKKRVITIWIPPNQSIEEAKNFMDEGFPIKEIDVQTRPDGHMMVTITLSAGGSAGGSAGG [r11_97_TrROS] | 1.56 ± 0.061 kcal/mol
62 | SAGGSAGGSANMPPEELADWIADKFQQRHGHPVKEIEVEHDPENNNYTITVEFDDKERTITLSAGGSAGGSA [r18_145_TrROS] | -0.271 ± 0.15 kcal/mol
63 | SAGGSAGGSMTFRVEVFNKKTGKVETIEVEGSLDELKALAPPGALVKIEVDGKTITIPAEELKSAGGSAGGS [r20_36_TrROS_Hall] | 1.67 ± 0.021 kcal/mol
